# Source: the RNAGym collection of RNA variant scans (doi:10.1093/molbev/msab373)
# B1: Azoarcus group I ribozyme (parent)
# chain: GUGCCUUGCGCCGGGAAACCACGCAAGGGAUGGUGUCAAAUUCGGCGAAACCUAAGCGCCCGCCCGGGCGUAUGGCAACGCCGAGCCAAGCUUCGGCGCCUGCGCCGAUGAAGGUGUAGAGACUAGACGGCACCCACCUAAGGCAAACGCUAUGGUGAAGGCAUAGUCCAGGGAGUGGCGAAAGUCACACAAACCGG
# Variants of: B1
# Experiment: reverse-splicing fitness (ratio to wild type); higher = more active; in vitro selection; Mg2+ level not given
# Outline: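 An in vitro group I ribozyme library with randomized positions was T7-transcribed and gel-purified. In triplicate, 10 pmol RNA in EPPS pH 7.5 was reacted with 50 pmoles of a 30-nt RNA substrate for 1 h at 37 °C across several added MgCl2 levels (1–48 mM), then stopped with EDTA. Products were reverse transcribed from a substrate-complementary primer, PCR-amplified and sequenced (HiSeq 4000). Fitness is a variant's read proportion after selection over that before, normalised to wild type.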
row,Variant,reverse-splicing fitness
1,C82U A111G A145C C150U C169G,0.00755
2,C82U A111G A145C C150U C169A,0.00735
3,C82U A111G A145C C150U C169U,0.00947
4,C82U A111G A120U C150G C169U,0.004
5,C82U A111G A120U C150G C169A,0.00636
6,C82U A111G A120U C150G C169G,0.00572
7,C82U A111G A120U C150U C169U U176A,0.00404
8,C82U A111G A120U C150U C169U U176C,0.00375
9,C82U A111G A120U C150U C169U U176G,0.0019
10,C82U A111G A120U C150U C169G U176C,0.00322
11,C82U A111G A120U C150U C169G U176A,0.00733
12,C82U A111G A120U C150U C169G U176G,0.00216
13,C82U A111G A120U U176C,0.0192
14,C82U A111G A120U U176G,0.00489
15,C82U A111G A120U U176A,0.011
16,C82U A111G A120U A145U,0.0429
17,C82U A111G A120U A145U C169A U176A,0.00208
18,C82U A111G A120U A145U C169A U176C,0.0022
19,C82U A111G A120U A145U C169A U176G,0.00175
20,C82U A111G A145G C150G U176G,0.00618
21,C82U A111G A145G C150G U176C,0.0206

row,Variant,reverse-splicing fitness
1,C82U A111G A145G C150G U176A,0.00967
2,C82U A111G A120U A145U C150G C169G U176G,0.00175
3,C82U A111G A120U A145U C150G C169G U176A,0.00235
4,C82U A111G A120U A145U C150G C169G U176C,0.00239
5,C82U A111G A145G C169G U176C,0.0236
6,C82U A111G A145G C169G U176G,0.00438
7,C82U A111G A145G C169G U176A,0.02
8,C82U A111G A145C C150G C169A U176A,0.00801
9,C82U A111G A145C C150G C169A U176C,0.00614
10,C82U A111G A145C C150G C169A U176G,0.00511
11,C82U A111G A120U A145U C150G C169U U176C,0.00227
12,C82U A111G A120U A145U C150G C169U U176G,0.00213
13,C82U A111G A120U A145U C150G C169U U176A,0.00271
14,C82U A111G A145G C150U C169G,0.00979
15,C82U A111G A145G C150U C169A,0.00982
16,C82U A111G A145G C150U C169U,0.0111
17,C82U A111G A120U A145G C150U C169G,0.00615
18,C82U A111G A120U A145G C150U C169U,0.00469
19,C82U A111G A120U A145G C150U C169A,0.0056
20,C82U A111G A145C U176C,0.242
21,C82U A111G A145C U176A,0.178

row,Variant,reverse-splicing fitness
1,C82U A111G A145C U176G,0.0614
2,C82U A111G A120U C150G C169U U176A,0.00387
3,C82U A111G A120U C150G C169U U176G,0.00234
4,C82U A111G A120U C150G C169U U176C,0.00396
5,C82U A111G A120U C169U U176A,0.00282
6,C82U A111G A120U C169U U176C,0.00442
7,C82U A111G A120U C169U U176G,0.0017
8,C82U A111G A145C C150U C169U U176C,0.00834
9,C82U A111G A145C C150U C169U U176A,0.0119
10,C82U A111G A145C C150U C169U U176G,0.00493
11,C82U A111G A145U C150A U176A,0.0234
12,C82U A111G A145U C150A U176G,0.0097
13,C82U A111G A145U C150A U176C,0.0305
14,C82U A111G A145U C150G C169G U176C,0.00527
15,C82U A111G A145U C150G C169G U176G,0.00515
16,C82U A111G A145U C150G C169G U176A,0.00668
17,C82U A111G A145G C150G C169G U176G,0.00507
18,C82U A111G A145G C150G C169G U176C,0.00848
19,C82U A111G A145G C150G C169G U176A,0.00977
20,C82U A111G A120U A145U C150A C169G U176C,0.00253
21,C82U A111G A120U A145U C150A C169G U176A,0.00245

row,Variant,reverse-splicing fitness
1,C82U A111G A120U A145U C150A C169G U176G,0.00148
2,C82U A111G A145G C150A C169G U176C,0.0236
3,C82U A111G A145G C150A C169G U176G,0.00543
4,C82U A111G A145G C150A C169G U176A,0.0194
5,C82U A111G A145U C150G C169A U176G,0.00561
6,C82U A111G A145U C150G C169A U176A,0.00927
7,C82U A111G A145U C150G C169A U176C,0.00932
8,C82U A111G A120U A145G U176A,0.0106
9,C82U A111G A120U A145G U176G,0.00369
10,C82U A111G A120U A145G U176C,0.0172
11,C82U A111G A145G C150A C169U U176C,0.0151
12,C82U A111G A145G C150A C169U U176G,0.00552
13,C82U A111G A145G C150A C169U U176A,0.0135
14,C82U A111G A120U C150A U176A,0.00587
15,C82U A111G A120U C150A U176C,0.00592
16,C82U A111G A120U C150A U176G,0.00238
17,C82U A111G A120U A145U C150A,0.00631
18,C82U A111G A120U A145U C150U,0.0272
19,C82U A111G A120U A145U C150G,0.00775
20,C82U A111G A145G C150G C169U U176C,0.012
